For assay [1], the target named is T1, WTgp5-trx complex (T7 gp5 DNA polymerase D5A, E7A with thioredoxin) (bacteriophage T7 | , UniProt P00581 1-704; P0AA25 1-109 = thioredoxin, D5A | E7A).
T1 construct: gp5 in pET15b, trxA in pRSFDuet; no tag is mentioned and purification was by heparin and ion exchange; also called DNA-WTgp5; source: E. coli BL21 (DE3), co-expressed, purified (Heparin HP, MonoQ)
Put plainly: native gel or EMSA; supershift: 10 nM fork DNA (2 gaps) pre-incubated with gp5-trx variants (60-100 nM) 15 min at 25 °C, then rising amounts of hexameric EQgp4, 15 min at 25 °C; 20 mM Hepes pH 7.5, 1 mM EDTA, 100 mM KCl, 0.1 mM βME, 5% glycerol, 0.10 mg/mL BSA; 4% polyacrylamide gel; fitted to the Hill equation. To be noted: both partners purified. (In general: A gel shift assay detects complexes by their altered migration in electrophoresis.)

Assay [2] addresses T2, K3Dgp5-trx complex (T7 gp5 K545D, K549D, K553D with thioredoxin) (bacteriophage T7 | , UniProt P00581 1-704; P0AA25 1-109 = thioredoxin, D5A | E7A | K545D | K549D | K553D).
T2 construct: bacteriophage T7 gp5 DNA polymerase (D5A, E7A) with the positively charged cleft mutations K545D, K549D, K553D; Mutagenesis on the plasmid encoding WTgp5 (D5A, E7A); also called DNA-K3Dgp5; source: E. coli BL21 (DE3), co-expressed, purified (Heparin HP, MonoQ)
Described as above. The note with it: both partners purified.

B1: T7 gp4 helicase-primase, active site mutant E343Q (enzyme, bacteriophage T7, UniProt P03692 1-566, looked up)
chain: MDNSHDSDSVFLYHIPCDNCGSSDGNSLFSDGHTFCYVCEKWTAGNEDTKERASKRKPSGGKPMTYNVWNFGESNGRYSALTARGISKETCQKAGYWIAKVDGVMYQVADYRDQNGNIVSQKVRDKDKNFKTTGSHKSDALFGKHLWNGGKKIVVTEGEIDMLTVMELQDCKYPVVSLGHGASAAKKTCAANYEYFDQFEQIILMFDMDEAGRKAVEEAAQVLPAGKVRVAVLPCKDANECHLNGHDREIMEQVWNAGPWIPDGVVSALSLRERIREHLSSEESVGLLFSGCTGINDKTLGARGGEVIMVTSGSGMGKSTFVRQQALQWGTAMGKKVGLAMLQESVEETAEDLIGLHNRVRLRQSDSLKREIIENGKFDQWFDELFGNDTFHLYDSFAEAETDRLLAKLAYMRSGLGCDVIILDHISIVVSASGESDERKMIDNLMTKLKGFAKSTGVVLVVICHLKNPDKGKAHEEGRPVSITDLRGSGALRQLSDTIIALERNQQGDMPNLVLVRILKCRFTGDTGIAGYMEYNKETGWLEPSSYSGEEESHSESTDWSNDTDF
notes: bacteriophage T7 gp4 helicase-primase, full-length, with E343Q; modified pET28a with histidine tags and a PreScission site; Added as 'hexameric EQgp4' in the EMSA; also called EQgp4; E343Q gp4; source: E. coli C3013I (T7 Express lysY/Iq), purified (Histrap, MonoQ)
B1: the “Kd with fork DNA (gp4 on fork DNA pre-bound to gp5-trx)” value in assay [1] is 8 ± 1 nM; in assay [2], 6 ± 1 nM.

These data come from article PMC8835902, “DNA Polymerase-Parental DNA Interaction Is Essential for Helicase-Polymerase Coupling during Bacteriophage T7 DNA Replication” (International Journal of Molecular Sciences, 2022).
